In PMC4865371, “ESCRT-III activation by parallel action of ESCRT-I/II and ESCRT-0/Bro1 during MVB biogenesis” (eLife, 2016):

B1: Snf7^1-225 (α6 truncated Snf7) (domain or fragment, Saccharomyces cerevisiae, UniProt P39929 1-225, looked up)
chain: MWSSLFGWTSSNAKNKESPTKAIVRLREHINLLSKKQSHLRTQITNQENEARIFLTKGNKVMAKNALKKKKTIEQLLSKVEGTMESMEQQLFSIESANLNLETMRAMQEGAKAMKTIHSGLDIDKVDETMDEIREQVELGDEISDAISRPLITGANEVDEDELDEELDMLAQENANQETSKIVNNNVNAAPISENKVSLPSVPSNKIKQSENSVKDGEEEEDEED
notes: Snf7/Vps32, Saccharomyces cerevisiae, residues 1-225, lacks the C-terminal α6 helix; source: recombinant, purified as described (Buchkovich et al., 2013; Henne et al., 2012; Tang et al., 2015)
B2: Snf7^Q90L (natural protein, Saccharomyces cerevisiae, UniProt P39929 1-240, looked up)
chain: MWSSLFGWTSSNAKNKESPTKAIVRLREHINLLSKKQSHLRTQITNQENEARIFLTKGNKVMAKNALKKKKTIEQLLSKVEGTMESMEQLLFSIESANLNLETMRAMQEGAKAMKTIHSGLDIDKVDETMDEIREQVELGDEISDAISRPLITGANEVDEDELDEELDMLAQENANQETSKIVNNNVNAAPISENKVSLPSVPSNKIKQSENSVKDGEEEEDEEDEDEKALRELQAEMGL
notes: Snf7/Vps32, Saccharomyces cerevisiae, with the point mutation Q90L found in the vps20Δ suppressor screen; source: recombinant, purified as described (Buchkovich et al., 2013; Henne et al., 2012; Tang et al., 2015)

Target: the molecule itself
Assay: negative stain transmission electron microscopy; purified recombinant Snf7 protein alone; protofilament assembly looked for

Row | Protein | binding result
1 | B1 | binds
2 | B2 | binds
